Where a chain is given by its changes, count along the chain named.
T1: human TIGIT on Jurkat cells (TIGIT/NFAT reporter Jurkat cells, BPS Bioscience #60538); Promega TIGIT Effector … (human, UniProt Q495A1 22-244)
T1 construct: whole, on cells; Same protein on two bought Jurkat lines (flow cytometry: BPS; bioassay: Promega); also called hu TIGIT cells; cells expressing human TIGIT
T1 sequence (looked up): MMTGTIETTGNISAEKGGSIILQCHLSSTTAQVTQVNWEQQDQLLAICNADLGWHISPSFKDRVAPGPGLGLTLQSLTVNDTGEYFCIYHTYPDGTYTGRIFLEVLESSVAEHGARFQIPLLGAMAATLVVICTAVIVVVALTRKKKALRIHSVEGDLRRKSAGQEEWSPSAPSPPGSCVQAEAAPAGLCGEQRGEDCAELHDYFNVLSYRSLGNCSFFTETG

T2: his-tagged murine TIGIT (Acro Biosystems #TIT-M52E6) (murine, UniProt P86176 29-148, limits assumed)
T2 construct: Bought protein; also called mouse his-tagged TIGIT; not shown: his tag
T2 sequence (looked up): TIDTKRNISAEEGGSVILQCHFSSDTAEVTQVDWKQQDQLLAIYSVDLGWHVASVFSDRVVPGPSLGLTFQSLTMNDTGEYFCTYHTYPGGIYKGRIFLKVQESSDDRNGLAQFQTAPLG

T3: his-tagged human TIGIT (Acro Biosystems #TIT-H52H3) (human, UniProt Q495A1 22-141)
T3 construct: Bought protein; also called His-tagged-TIGIT (human); not shown: his tag
T3 sequence (looked up): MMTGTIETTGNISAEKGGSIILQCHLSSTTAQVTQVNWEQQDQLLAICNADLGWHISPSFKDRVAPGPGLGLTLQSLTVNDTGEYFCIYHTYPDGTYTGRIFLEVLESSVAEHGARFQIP

B1: 43586p2.D05 (scFv, V domains shown)
VH: EVQLLESGGGLVQPGGSLRLSCAASGFTFDDYVMSWVRQAPGKGLEWVSLINWNGDKTYYADSVKGRFTISRDNSKNTLYLQMNSLRAEDTAVYYCARHWIVFQYGLDIWGQGTTVTVSS
VL: QSVLTQPLSASGTPGQRVTISCSGVSSNIEIKYVSWYQQLPGTAPKLLIYNSHQRPSGVPDRFSGSKSGTSASLAISGLQSEDEADYYCTSWDDRLKSWVFGGGTKLTVL
B2: 43586p2.E08 (scFv, V domains shown)
VH: B1 VH with G10D, G66D, I109V
VL: B1 VL
B3: 43586p2.C09 (scFv, V domains shown)
VH: EVQLLESGGGLVQPGGSLRLSCTASGFTFTSYAMSWVSQAPGKGLEWVAGISYDGSIKYYADSVKGRLTISRDNSKNTLYLQMNSLRAEDTAIYYCAKHLTGGTTDYYYYAMDVWGQGTTVTVSS
VL: QSVLTQPPSASGTPGQRVTISCSGSTSNIGTNRYVHWYQQFPGTAPKLLIYGTDRRPSGVSDRFSGSKSGTSASLAISGLQSEDEADYYCAAWDDSLSAWVFGGGTKLTVL
B4: 43586p1.1.A7 (scFv, V domains shown)
VH: B3 VH with T23A, S38R, K58Q, Y80N, E89G, I93V, A111G
VL: B3 VL with L4M, T26S, Q39K, F41V, T53N, D54H, R55Q, S61P, D95G, A99G
B5: 43586p1.2.B8 (scFv, V domains shown)
VH: EVQLLESGGGLVQPGGSLRLSCAASGFTFTSYLMSWVRQAPGKGLEWVSTITWDGDRTYYADSVKGRFTISRDNSKNTLYLQMNSLRVGDTAVYYCAKHWTVFQYGMDVWGQGTTVTVSS
VL: QSVLTQPASASGTPGQRVTITCSGTISNIETKYVSWYQQLPGTAPKLLIYGNHQRPSGVPDRFSGSKSGTSASLAISGLQSEDEADYYCASWENDLKSWVFGGGTKLTVL
B6: 43586p1.2.C9 (scFv, V domains shown)
VH: B1 VH with V93I, R98K, L107M, I109V
VL: B1 VL with L8P, V25S, S26I, I31T, H53D, T90V, D94A, R95S
B7: 43586p1.2.C12 (scFv, V domains shown)
VH: ESGGGLVQPGGSLRLSCAASGFTFSDYLMTWVRQAPGKGLEWVSTITWDGDRTYYADSVKGRFTISRDNSKNTLYLQMNSLRAEDTAVYYCAKHWTVFQYGMDVWGQGTTVTVSS
VL: B5 VL with A8P, T21S, T31I, A90S
B8: 43586p1.2.C5 (scFv, V domains shown)
VH: EVQLLESGGGLVQPGGSLRLSCAASGFTVSDHYMSWVRQAPGKGLEWVSTTSSTSWKNYTYYADSVKGRFSISRDNSENTLYLQMNGLRAEDTAVYYCAKGSYGMDVWGQGTTVTVSS
VL: QSVLTQPPSASGTPGQRVTISCSGSNFNIGTKYLYWYQQLPGTAPKLLIYLDSQRPSGVPDRFSTSKPGTSASLAISGLQSEDEADYYCALWDDHLHGWVFGGGTKLTVL
B9: 43586p2.D01 (scFv, V domains shown)
VH: B8 VH with D31S, H32N, Y33W, T54S, K57N, S71T, E78K, G87S
VL: B8 VL with F27S, T31A, D52N, S53D, T65G, P68S, L91F, H97K
B10: 43586p1.2.E6 (scFv, V domains shown)
VH: B8 VH
VL: B8 VL with P68S
B11: 43645p1.D7 (scFv, V domains shown)
VH: EVQLLESGGGLVQPGGSLRLSCAASGFTFSRNSMSWVRQAPGKGLEWVSTINSGSSYTYYADSVKGRFTISRDNSKNTLYLQMNSLRAEDTAVYYCAKDNCNGYHCYGMDVWGLGTTVTVSS
VL: QSVLTQPPSASGTPGQRVTISCSGSTSNVGDHYVHWYQQLPGTAPKLLIYKDDQRPSGVPDRFSGSKSGTSASLAISGLQSEDEADYYCSTWDNTLNGWVFGGGTKLTVL
B12: 43586p2.D06 (scFv, V domains shown)
VH: EVQLLESGGGLVQPGGSLRLSCAASGFTFSSYWMNWVRQAPGKGLEWVSGIYSGGTTYYADSVKGRFTISRDNSKNTLYLQMNSLRAEDTAVYYCTRENWKENNAMDVWGQGTTVTVSS
VL: QSVLTQPPSASGTPGQRVTISCSGVTSNIASYHVYWYQQLPGTAPKLLIYLNSQRPSGVPDRFSASKSGTSASLAISGLQSEDEADYYCATWDGSLNGWVFGGGTKLTVL
B13: 43586p2.G02 (scFv, V domains shown)
VH: B12 VH
VL: B12 VL with L96Q

target: T1, human TIGIT on Jurkat cells (TIGIT/NFAT …); assay: flow cytometry, TIGIT/NFAT Jurkat cells, 10 ug/ml

MFI | Binder
9960 MFI | B1
11300 MFI | B2
8830 MFI | B3
9000 MFI | B4
9470 MFI | B5
8330 MFI | B6
11900 MFI | B7
10700 MFI | B8
9990 MFI | B9
10500 MFI | B10
9660 MFI | B11
15400 MFI | B12
7590 MFI | B13

target: T2, his-tagged murine TIGIT (Acro …); assay: SPR (Carterra LSA), scFv-Fc captured, His-TIGIT analyte
Protocol: (§1) Binding affinities of anti-TIGIT antibodies to human, cyno, and murine TIGIT were measured by Surface Plasmon Resonance (SPR) on a Carterra LSA instrument. Goat anti-human Fc antibody was amine coupled to a HC30M chip. ScFv-Fc supernatants were diluted 30-fold with HBSTE and were captured by the anti-human Fc coupled HC30M chip. A 1:2 dilution series of his-tagged human TIGIT, starting at 400 nM, was injected onto the chip for binding. A dilution series was also carried out for cyno TIGIT and murine TIGIT. Data were analyzed using the Carterra™ Kinetics software.

Kd | Binder
5.46 nM | B1
5.79 nM | B2
501 nM | B5
3.66 nM | B6
68.2 nM | B7
3.2 nM | B8
0.496 nM | B9
3.07 nM | B10
3.09 nM | B12
1.57 nM | B13

target: T3, his-tagged human TIGIT (Acro Biosystems …); assay: as above
Protocol: as §1

Kd | Binder
0.214 nM | B1
0.252 nM | B2
0.354 nM | B3
0.721 nM | B4
0.125 nM | B5
0.202 nM | B6
0.192 nM | B7
1.04 nM | B8
1.04 nM | B9
1.56 nM | B10
6.76 nM | B11
0.344 nM | B12
0.639 nM | B13

target: T4, His-tagged cynomolgus monkey TIGIT (Acro Biosystems #TIT-05223) (cynomolgus monkey, UniProt A0A7N9I9V4 89-209); assay: as above
T4 construct: Bought protein; also called cyno TIGIT; cynomolgus TIGIT; not shown: His tag
Protocol: as §1

T4 sequence (A0A7N9I9V4 entry or part of it): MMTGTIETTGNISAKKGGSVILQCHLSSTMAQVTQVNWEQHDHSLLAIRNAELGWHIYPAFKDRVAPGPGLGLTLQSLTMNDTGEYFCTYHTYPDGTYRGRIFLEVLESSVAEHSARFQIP

Kd | Binder
1.55 nM | B1
1.83 nM | B2
2.62 nM | B3
20 nM | B4
25.3 nM | B5
8.69 nM | B6
9.18 nM | B7
411 nM | B8
29.1 nM | B9
564 nM | B10
6.27 nM | B11
1.06 nM | B12
2.37 nM | B13

target: T1, human TIGIT on Jurkat cells (TIGIT/NFAT …); assay: cell-based or functional assay

max. signal (% of 22G2) | Binder
118 % of 22G2 | B1
117 % of 22G2 | B2
115 % of 22G2 | B3
89 % of 22G2 | B4
130 % of 22G2 | B5
126 % of 22G2 | B6
118 % of 22G2 | B7
91 % of 22G2 | B8
103 % of 22G2 | B9
97 % of 22G2 | B10
57 % of 22G2 | B11

target: T2, his-tagged murine TIGIT (Acro …); assay: ELISA, coated His-TIGIT, 1 ug/ml

Elisa OD450 | Binder
1.67 OD450 | B1
2.03 OD450 | B2
0.046 OD450 | B3
0.045 OD450 | B4
1.66 OD450 | B5
0.046 OD450 | B6
2.03 OD450 | B7
2.03 OD450 | B8
1.66 OD450 | B9
2.01 OD450 | B10
0.32 OD450 | B11
1.36 OD450 | B12
1.7 OD450 | B13

target: T3, his-tagged human TIGIT (Acro Biosystems …); assay: ELISA, coated His-TIGIT, 1 ug/ml

Elisa OD450 | Binder
1.92 OD450 | B1
1.46 OD450 | B2
2.07 OD450 | B3
2.01 OD450 | B4
2.1 OD450 | B5
2.17 OD450 | B6
2.21 OD450 | B7
2.03 OD450 | B8
1.95 OD450 | B9
1.82 OD450 | B10
2.06 OD450 | B11
1.77 OD450 | B12
1.88 OD450 | B13

target: T4, His-tagged cynomolgus monkey TIGIT …; assay: ELISA, coated His-TIGIT, 1 ug/ml

Elisa OD450 | Binder
1.73 OD450 | B1
1.87 OD450 | B2
1.79 OD450 | B3
1.34 OD450 | B4
1.46 OD450 | B5
1.61 OD450 | B6
1.68 OD450 | B7
0.685 OD450 | B8
1.61 OD450 | B9
0.776 OD450 | B10
1.88 OD450 | B11
1.66 OD450 | B12
1.5 OD450 | B13

From patent US20230265187A1 (published 2023)
